Drawing on patent US20220372168A1, this text covers % Act, EC50 and Percent Activity % for 1 substance.

The assay addresses human FGFR1c/KLB receptor complex on cells (human) (UniProt P11362). Kind of assay: cell-based or functional assay.

Chain of human FGFR1c/KLB receptor complex on cells (human) (P11362 other isoform, or with tags, fused parts or gaps limits assumed, chain 1 of 2): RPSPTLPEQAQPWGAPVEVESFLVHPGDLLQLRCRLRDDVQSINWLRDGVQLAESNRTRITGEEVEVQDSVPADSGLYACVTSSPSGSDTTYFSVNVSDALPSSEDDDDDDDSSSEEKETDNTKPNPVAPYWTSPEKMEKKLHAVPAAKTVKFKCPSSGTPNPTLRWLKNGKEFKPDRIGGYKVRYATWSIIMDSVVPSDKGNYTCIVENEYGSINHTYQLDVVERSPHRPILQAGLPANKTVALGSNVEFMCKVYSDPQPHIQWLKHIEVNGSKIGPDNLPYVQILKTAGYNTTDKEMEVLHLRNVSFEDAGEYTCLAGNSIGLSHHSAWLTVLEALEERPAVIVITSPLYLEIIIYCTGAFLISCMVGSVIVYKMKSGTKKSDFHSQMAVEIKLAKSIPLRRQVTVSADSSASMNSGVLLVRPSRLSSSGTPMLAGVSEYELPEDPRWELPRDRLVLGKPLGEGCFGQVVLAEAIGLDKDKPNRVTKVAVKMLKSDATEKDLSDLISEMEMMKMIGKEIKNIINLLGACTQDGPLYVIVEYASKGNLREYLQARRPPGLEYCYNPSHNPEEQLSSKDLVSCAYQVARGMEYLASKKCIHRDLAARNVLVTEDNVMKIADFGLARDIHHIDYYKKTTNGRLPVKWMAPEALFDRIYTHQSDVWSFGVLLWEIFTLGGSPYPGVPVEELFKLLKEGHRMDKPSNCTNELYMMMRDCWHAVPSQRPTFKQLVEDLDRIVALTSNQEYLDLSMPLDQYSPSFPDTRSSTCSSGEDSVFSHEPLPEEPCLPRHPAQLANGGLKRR
Chain of human FGFR1c/KLB receptor complex on cells (human) (chain, as listed by the source limits assumed, chain 2 of 2): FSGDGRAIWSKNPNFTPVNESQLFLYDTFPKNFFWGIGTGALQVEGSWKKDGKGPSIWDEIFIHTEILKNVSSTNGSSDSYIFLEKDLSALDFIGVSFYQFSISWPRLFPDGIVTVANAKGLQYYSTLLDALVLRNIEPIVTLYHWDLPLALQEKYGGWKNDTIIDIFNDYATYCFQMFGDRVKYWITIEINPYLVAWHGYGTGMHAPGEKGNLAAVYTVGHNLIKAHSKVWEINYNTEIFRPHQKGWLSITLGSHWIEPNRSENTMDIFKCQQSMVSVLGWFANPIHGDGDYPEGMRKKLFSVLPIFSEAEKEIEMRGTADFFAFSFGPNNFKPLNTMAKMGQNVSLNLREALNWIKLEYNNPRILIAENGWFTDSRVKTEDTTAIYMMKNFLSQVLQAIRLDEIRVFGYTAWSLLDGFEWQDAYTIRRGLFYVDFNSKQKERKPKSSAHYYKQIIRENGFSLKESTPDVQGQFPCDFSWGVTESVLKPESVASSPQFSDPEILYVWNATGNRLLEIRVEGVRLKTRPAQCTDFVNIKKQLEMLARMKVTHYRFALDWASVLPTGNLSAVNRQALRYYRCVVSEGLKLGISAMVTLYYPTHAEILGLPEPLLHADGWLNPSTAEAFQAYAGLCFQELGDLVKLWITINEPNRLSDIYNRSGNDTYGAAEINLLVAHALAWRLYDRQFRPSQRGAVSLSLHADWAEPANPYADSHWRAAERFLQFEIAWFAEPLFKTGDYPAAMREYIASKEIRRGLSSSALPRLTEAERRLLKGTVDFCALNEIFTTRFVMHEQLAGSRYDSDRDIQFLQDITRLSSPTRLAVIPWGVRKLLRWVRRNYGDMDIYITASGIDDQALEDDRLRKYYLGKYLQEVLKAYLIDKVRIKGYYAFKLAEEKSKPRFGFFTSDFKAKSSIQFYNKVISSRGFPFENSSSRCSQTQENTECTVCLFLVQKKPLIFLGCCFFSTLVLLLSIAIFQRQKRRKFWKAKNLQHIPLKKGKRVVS

For “REGN1438 (6His-FGF21) (from UniProt Q9NSA1 29-209) (ligand)”, the % Act was 100%; the EC50 (as a rule, the concentration at which the effect is half-maximal) stood at 2.9 nM; the Percent Activity % turned out to be 100%.
